# Measurements as given in PMC10830420, “Structures, functions and adaptations of the human LINE-1 ORF2 protein” (Nature, 2023).
# System: Nc1ncnc2c1ncn2[C@H]1C[C@H](O)[C@@H](COP(=O)(O)OP(=O)(O)OP(=O)(O)O)O1
# Assay: Single nucleotide (dATP) incorporation kinetics, HERV-K RT
# Format: biochemical, human
# Settings: 20-nt DNA primer, HERV-K RT 12 nM
# Description: Extended Data Fig. 5 Comparative enzymology of ORF2p RT with HIV-1 and HERV-K. a, Single nucleotide incorporation kinetic curves and parameters of dATP with 36-nt RNA or DNA template and 20-nt DNA primer with ORF2p core (33 nM), HIV-1 RT (4 nM) and HERV-K RT (12 nM). For each enzyme, Michaelis-Menten parameter kcat/KM is nearly identical on both templates (n = 3 (DNA template) and n = 4 (RNA template) independent samples over 2 independent experiments; data represented as mean ± SD). b, Comparison of HIV-1 RT and ORF2p in extension of very short (5–10 nt) primers, pre-annealed to DNA and RNA templates. ORF2p extends all DNA and RNA primer lengths, with somewhat reduced efficiency at 5 nt and, to a lesser extent, 6 nt. […] ORF2p also makes NTA (+) and template jumping/switching (##) larger products; more visible on longer exposure. […] When all products are quantified, HIV-1 extends 21–37% of primers, and this is roughly halved by the heparin trap; ORF2p extends ~10–18% of primers and is unaffected by the trap. […] Asterisk (*) Cy5-5’-label on primer. n = 1 quantified samples shown representative of two independent experiments. […]
substance,measurement,setting,value
HERV-K RT (Homo sapiens),Km,other: DNA template 36-nt,4.3 ± 0.1 nM
same,Km,other: RNA template 36-nt,9.5 ± 0.1 nM
